Data as given in patent US20260232827A1 (Zymeworks, published 2026).

T1: Full length human NaPi2b (sodium-dependent phosphate transporter 2B, SLC34A2) (human, UniProt O95436 1-690)
T1 construct: also called huNaPi2b; CL_#13432
T1 sequence: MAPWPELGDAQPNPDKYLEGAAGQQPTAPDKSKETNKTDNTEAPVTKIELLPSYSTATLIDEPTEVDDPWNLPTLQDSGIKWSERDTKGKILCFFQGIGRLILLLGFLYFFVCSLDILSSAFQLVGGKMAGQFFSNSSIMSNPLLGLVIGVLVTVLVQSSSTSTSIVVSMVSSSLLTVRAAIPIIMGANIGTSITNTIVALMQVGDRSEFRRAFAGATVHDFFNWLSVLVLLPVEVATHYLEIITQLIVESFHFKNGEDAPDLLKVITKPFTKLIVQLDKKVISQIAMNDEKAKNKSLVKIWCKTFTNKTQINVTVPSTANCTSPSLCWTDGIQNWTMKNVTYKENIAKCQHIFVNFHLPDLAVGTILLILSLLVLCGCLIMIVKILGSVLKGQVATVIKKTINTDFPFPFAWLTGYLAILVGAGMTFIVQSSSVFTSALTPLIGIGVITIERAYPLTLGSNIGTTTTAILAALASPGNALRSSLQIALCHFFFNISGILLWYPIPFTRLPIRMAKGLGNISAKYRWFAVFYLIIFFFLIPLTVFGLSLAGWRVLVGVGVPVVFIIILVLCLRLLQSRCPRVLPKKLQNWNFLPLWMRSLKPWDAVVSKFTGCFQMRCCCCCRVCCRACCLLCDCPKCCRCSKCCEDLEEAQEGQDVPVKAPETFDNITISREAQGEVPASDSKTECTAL

B1: palivizumab (v21995), anti-RSV antibody, negative control (antibody, human IgG1, kappa, V domains shown)
VH: QVTLRESGPALVKPTQTLTLTCTFSGFSLSTSGMSVGWIRQPPGKALEWLADIWWDDKKDYNPSLKSRLTISKDTSKNQVVLKVTNMDPADTATYYCARSMITNWYFDVWGAGTTVTVSS
VL: DIQMTQSPSTLSASVGDRVTITCKSQLSVGYMHWYQQKPGKAPKLLIYDTSKLASGVPSRFSGSGSGTEFTLTISSLQPDDFATYYCFQGSGYPFTFGGGTKLEIKR
B2: v38591 (humanized anti-NaPi2b antibody, H1L2, wild-type Fc, heavy chains with C-terminal lysine) (antibody, human IgG1, kappa)
heavy: not shown
light: DVQMTQSPSSLSASVGDRVTITCRASQDVYSYLNWYQQKPGKAVKLLIYYTSRLQSGVPSRFSGSGSGTDYTLTISSLQPEDFATYYCQQYNIFPWTFGQGTKLEIKRTVAAPSVFIFPPSDEQLKSGTASVVCLLNNFYPREAKVQWKVDNALQSGNSQESVTEQDSKDSTYSLSSTLTLSKADYEKHKVYACEVTHQGLSSPVTKSFNRGEC
notes: Full-size human IgG1/kappa antibody; also called v38591 (wild-type Fc)
B3: MX35 (v18992), reference anti-NaPi2b antibody (antibody, human IgG1, kappa)
heavy 1: GQVQLVQSGAEVVKPGASVKMSCKASGYTFTGYNIHWVKQAPGQGLEWIGAIYPGNGDTSYKQKFRGRATLTADTSTSTVYMELSSLRSEDSAVYYCARGETARATFAYWGQGTLVTVSSASTKGPSVFPLAPSSKSTSGGTAALGCLVKDYFPEPVTVSWNSGALTSGVHTFPAVLQSSGLYSLSSVVTVPSSSLGTQTYICNVNHKPSNTKVDKKVEPKSCDKTHTCPPCPAPELLGGPSVFLFPPKPKDTLMISRTPEVTCVVVDVSHEDPEVKFNWYVDGVEVHNAKTKPREEQYNSTYRVVSVLTVLHQDWLNGKEYKCKVSNKALPAPIEKTISKAKGQPREPQVYVYPPSRDELTKNQVSLTCLVKGFYPSDIAVEWESNGQPENNYKTTPPVLDSDGSFALVSKLTVDKSRWQQGNVFSCSVMHEALHNHYTQKSLSLSPG
heavy 2: not shown
light: GDIQMTQSPSSLSASVGDRVTITCSASQDIGNFLNWYQQKPGKTVKVLIYYTSSLYSGVPSRFSGSGSGTDYTLTISSLQPEDFATYYCQQYSKLPLTFGQGTKLELKRTVAAPSVFIFPPSDEQLKSGTASVVCLLNNFYPREAKVQWKVDNALQSGNSQESVTEQDSKDSTYSLSSTLTLSKADYEKHKVYACEVTHQGLSSPVTKSFNRGEC
B4: lifastuzumab (v18993), reference anti-NaPi2b antibody (antibody, human IgG1, kappa)
heavy 1: GEVQLVESGGGLVQPGGSLRLSCAASGFSFSDFAMSWVRQAPGKGLEWVATIGRVAFHTYYPDSMKGRFTISRDNSKNTLYLQMNSLRAEDTAVYYCARHRGFDVGHFDFWGQGTLVTVSSASTKGPSVFPLAPSSKSTSGGTAALGCLVKDYFPEPVTVSWNSGALTSGVHTFPAVLQSSGLYSLSSVVTVPSSSLGTQTYICNVNHKPSNTKVDKKVEPKSCDKTHTCPPCPAPELLGGPSVFLFPPKPKDTLMISRTPEVTCVVVDVSHEDPEVKFNWYVDGVEVHNAKTKPREEQYNSTYRVVSVLTVLHQDWLNGKEYKCKVSNKALPAPIEKTISKAKGQPREPQVYVYPPSRDELTKNQVSLTCLVKGFYPSDIAVEWESNGQPENNYKTTPPVLDSDGSFALVSKLTVDKSRWQQGNVFSCSVMHEALHNHYTQKSLSLSPG
heavy 2: not shown
light: GDIQMTQSPSSLSASVGDRVTITCRSSETLVHSSGNTYLEWYQQKPGKAPKLLIYRVSNRFSGVPSRFSGSGSGTDFTLTISSLQPEDFATYYCFQGSFNPLTFGQGTKVEIKRTVAAPSVFIFPPSDEQLKSGTASVVCLLNNFYPREAKVQWKVDNALQSGNSQESVTEQDSKDSTYSLSSTLTLSKADYEKHKVYACEVTHQGLSSPVTKSFNRGEC

Experiments:
[1] = target: T2, Construct 2 (chimeric human NaPi2b, swap in NaPi2c in 280-301) (human); test: flow cytometry, transfected HEK293-6e cells, antibody 200 nM;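 also: cells incubated with antibody for 24 h at 4 °C, background taken as average MFI of unstained cells without primary antibody, at least 1,000 events per well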
T2 construct: also called CL_#29915

[2] = target: T1, Full length human NaPi2b …; test: as above
[3] = target: T3, Construct 1 (chimeric human NaPi2b, swap in NaPi2c in 239-259) (human); test: as above
T3 construct: also called CL_#29914

[4] = target: T4, Construct 5 (chimeric human NaPi2b, swap in NaPi2a in 304-348) (human); test: as above
T4 construct: also called CL_#13436

[5] = target: T2, Construct 2 (chimeric human NaPi2b, …); test: flow cytometry, transfected HEK293-6e cells, antibody 2 nM;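 also: transfected cells exposed to test antibody 24 h at 4 °C to block internalization, at least 1,000 events per well, background is mean MFI of unstained cells lacking primary antibody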
[6] = target: T1, Full length human NaPi2b …; test: as above
[7] = target: T3, Construct 1 (chimeric human NaPi2b, …); test: as above
[8] = target: T5, Construct 4 (chimeric human NaPi2b, swap in NaPi2c in 341-358) (human); test: as above
T5 construct: also called CL_#13435

[9] = target: T6, Construct 3 (chimeric human NaPi2b, swap in NaPi2c in 304-321) (human); test: as above
T6 construct: also called CL_#29916

Binder	Background-Subtracted AF647 Mean Fluorescence Intensity [1] [MFI]	Background-Subtracted AF647 Mean Fluorescence Intensity [2] [MFI]	Background-Subtracted AF647 Mean Fluorescence Intensity [3] [MFI]	Background-Subtracted AF647 Mean Fluorescence Intensity [4] [MFI]	Background-Subtracted AF647 Mean Fluorescence Intensity [5] [MFI]	Background-Subtracted AF647 Mean Fluorescence Intensity [6] [MFI]	Background-Subtracted AF647 Mean Fluorescence Intensity [7] [MFI]	Background-Subtracted AF647 Mean Fluorescence Intensity [8] [MFI]	Background-Subtracted AF647 Mean Fluorescence Intensity [9] [MFI]
B1	-30	19	12	40	-69	-22	-30	1	19
B2	1410	989	2160	204	832	948	1550	725	743
B3	1360	979	1720	219	660	870	1890	611	594
B4	1230	893	1510	302	473	1040	1230	726	609
